# Earlier results, collected in publication PMC9412859 (World Journal of Diabetes, 2022).
# Conditions: rats, oral
Substance,plasma exenatide level versus subcutaneous exenatide solution (functionalised NPs),time of maximum plasma concentration (enteric-coated capsule containing pH responsive NPs)
"exenatide: GLP1-RA, here delivered orally in functionalised nanoparticles",not significantly different,–
"Exendin-4: GLP1-RA, here released from enteric-coated capsule containing pH responsive NPs",–,5 h
